# Data as given in the RNAGym collection of RNA variant scans (doi:10.1073/pnas.2313332121).
# Fewer inactive variants are shown than the library holds.
# B1: TPR 5TU (parent)
# chain: GGAUCUUCUCGAUCUAACAAAAAAGACAAAUCUGCCACAAAGCUUGAGAGCAUCUUCGGAUGCAGAGGCGGCAGCCUUCGGUGGCGCGAUAGCGCCAACGUUCUCAACUAUGACACGCAAAACGCGUGCUCCGUUGAAUGGAGUUUAUCAUG
# Variants of: B1
# Test: polymerase ribozyme fitness, log enrichment relative to wild type (log ratio); higher = more active; in vitro selection for triplet polymerase activity
# Procedure, shortened: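 Each subunit of a heterodimeric triplet polymerase ribozyme was mutagenized into a library by PCR, transcribed, and subjected to one round of in vitro selection, run in triplicate. Libraries were annealed with a biotinylated primer, the partner subunit and triplets, incubated frozen at −7 °C, and extended constructs were gel-excised, captured on streptavidin beads and recovered by RT-PCR. Input and output libraries were sequenced on Illumina, keeping genotypes with ≥10 input reads and ≥1 read per output. Fitness is log base 2 of genotype enrichment divided by wild-type enrichment, from inverse-variance-weighted replicate averages.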
row,Variant,polymerase ribozyme fitness (log ratio)
1,A22U G83C,-1.73
2,A23C U55A U82C G136U,≤ -4.2
3,A23G A37G A39G U44A A64U C75U C95U C108A A142U,≤ -4.2
4,A24C U55A A73U G84U U102A A110U A119C,≤ -4.2
5,A22U G92A C95A C105U,-3.63
6,A24C G46C A73G C93A A110U A147U,≤ -4.2
7,A23G A30G A52U C116U C132U,≤ -4.2
8,A23G C85U C95U G133U,-4
9,A24C U45A C57U G84A,≤ -4.2
10,A22U U148A,-2.76
11,A23U C87A G133A,≤ -4.2
12,A23C C95U,-4.12
13,A24G A29G G46U,≤ -4.2
14,A23U C38U G59C C95A U151G,≤ -4.2
15,A23C C43A C54U A73U C99G,≤ -4.2
16,A23C G42U A137U,≤ -4.2
17,A24C A30U A52G G58A G68A U82G C93U A98U G100C C125A G126U,≤ -4.2
18,A23G G25C G50C C57A G58U C85U U144C,≤ -4.2
19,A23U C96U,-4.1
20,A23C G25A U55A U61G G68A G92U A97U G124A G128C,≤ -4.2
21,A23C C87U G112U,-3.99

row,Variant,polymerase ribozyme fitness (log ratio)
1,A23U C43U U61G G84U A89C C108G U145A,≤ -4.2
2,A22U U56A A64G A122U C123G A150G,≤ -4.2
3,A23U C43A C69G C99G U139A U144A,≤ -4.2
4,A22U G34A G74U G94A A119C G143A,≤ -4.2
5,A23U A26U A41U G50A G65C A91C C103G G128U,≤ -4.2
6,A24C G34C G50C U134A,≤ -4.2
7,A23U U31C C87G U104G,≤ -4.2
8,A24G A26C A29C C79A C93U A115G G117A U144C A150C,≤ -4.2
9,A23G U31A G58C G70C C93G A107G,≤ -4.2
10,A23U U55A,-3.85
11,A23G G59A G68U A142U,≤ -4.2
12,A22U G46A C79G G80U G92A A150C,≤ -4.2
13,A23G C36A C105A A107G U145A,≤ -4.2
14,A23G A29U U61G C99U,≤ -4.2
15,A23U C125A,-3.51
16,A24C A73C G86U C96A,≤ -4.2
17,A23C U31C C99U C123U U134C,≤ -4.2
18,A23C C87G A91G C99A C103G,≤ -4.2
19,A23C A29U C38U C54A G84A A98U A106G A137U,≤ -4.2
20,A23G C54A U55G G58A G59C,-4.08
21,A24C C95A C96G U144C,≤ -4.2

row,Variant,polymerase ribozyme fitness (log ratio)
1,A23G G46A U56A C87A G141C,≤ -4.2
2,A23G G25C A40C G58A U61A G80C G88C,≤ -4.2
3,A23G A40U A66C U109G U111G C149U,≤ -4.2
4,A24C G74C U90G C99G U127A,≤ -4.2
5,A23C C76U C87A,≤ -4.2
6,A23C A37G U53A A66G G88U U130A U146A,≤ -4.2
7,A23G A64G G81A C108A G124U G143U,≤ -4.2
8,A23G C79G,≤ -4.2
9,A24C A73G G83C G143U,≤ -4.2
10,A23G A41U C76G G80A A89U G124U,≤ -4.2
11,A24C U53C C118U A142C,≤ -4.2
12,A23U G25U A29U C43U G58U G86A A107G,≤ -4.2
13,A24C G67C G92U C99U U109G A110U,≤ -4.2
14,A24C C27G G94A A106G C108U,-3.93
15,A23U G68C C76G G80C A89U U148G,≤ -4.2
16,A23U U55A G128U,≤ -4.2
17,A22U G46C C114U,-3.67
18,A23C A30C G50A A66G C96A A98U G128C,≤ -4.2
19,A22U U127A,-3.54
20,A24C A29C U55G G94C,≤ -4.2
21,A24C A30G A73U C96A,≤ -4.2

row,Variant,polymerase ribozyme fitness (log ratio)
1,A23G G58U C108G U135G,≤ -4.2
2,A23C C87U,-3.89
3,A23C C87G,≤ -4.2
4,A23C C27G U61A U77A A91U G136C,≤ -4.2
5,A23C C43A A52U A119C U135G U139A G140A A142G,≤ -4.2
6,A24C G50C C96G A110U,≤ -4.2
7,A22U C96G,-0.148
8,A22U C96A,-0.026
9,A22U G48C C51U C116G G124A A150G,≤ -4.2
10,A22U G81A A106C G128A U139C,-3.92
11,A23U A29U C79G G81U C93G C149U,≤ -4.2
12,A24C A47G C79U G94C C125U,≤ -4.2
13,A23U A52G C85U A89G A106G G141U U148G,≤ -4.2
14,A23C A29C U31G U33C C95U C96U A107U U127C A138C,≤ -4.2
15,A22U G58C G92U G124C,-0.925
16,A23G G46C G50A G92A C118U A142U,≤ -4.2
17,A24C A49C G84A A97C U130G A137U,≤ -4.2
18,A23U G50A A60C A66U C85U C95G A122C,≤ -4.2
19,A23U C38A U45G G50C U56A C93G G117A,≤ -4.2
20,A23C A24U C57U G58A U61A C93G C103U C118U,≤ -4.2
